According to the DeepSol protein solubility set:

test: soluble on expression in E. coli; label from the status in PepcDB or PDB records

| Sequence | soluble on expression in E. coli |
| --- | --- |
| MEGVELKEEWQDEDFPIPLPEDDSIEADTLDGTDPDRQPGSLEVNGNKVRKKLMAPDISLTLDPGEDSLWSDDLDEAGEVDLEGLDTPSENSDEFEWEDDLPKPKTTEVIRKGSITEYTATEEKGDGRRWRMFRIGEQDHRVDMKAIEPYKKVISHGGYYGDGLNAIVVFAVCFMPESGQPNYRYLMDNLFKYVIGTLELLVAENYMIIYLNGATTRRKMPSLGWLRRCYQQIDRRLRKNLKSLIIVHPSWFIRTLLAVTRPFISSKFSQKIRYVFNLAELAELVPMEYVGIPECIKQVDQELNGKQEPPKSEQ | not soluble |
| MEGVKKIKNPSTVKDELLELMFRIYRSTNGKYPALEWVKRKPNPNDFDGFREVYEPFLKFRLSQEFDELYTYQKDNRIIGTIALVYKRIKEKGIWWVPEELMNEKVGLIEFFVVDPEFQGKGIGSTLLEFAVKRLRSLGKDPYVVTFPNLEAYSYYYMKKGFREIMRYKEFVILKFNHKKFQLEHHHHHH | not soluble |
| MEHEIGNISIARIRQMNPSLKGINNDFVMDRSEHYIPENMNPIFKYPLRLDGIIISIREKGSAKVNINLREYDIEQNDLIICAPGDILQSMLSPGIHLSQMFLISSDFLKEMYINLNSFMPFFISLKENPKFHLMEEEVQELKSFYELIEETVSRNDNFRTEIVRRLMGAYLYKIGSILHRKQPEFLSENPKSLKREEVLFNQFINLLTEHHRKERRVDFYAEQLFLSPKHFSTVVKKVSGKTAGEWIDEYVILEAKALLKYSVMSIQEVAYFMNFPNPSFFGKYFKHHTGLSPSEYKMQ | not soluble |
| MEHKTPKHIVAVAGYLTNEKNEVLLTKVHWRADTWELPGGQVEEGEALDQAVCREIKEETGLTVKPIGITGVYYNTSMHILAVVFKVAYISGEIKIQPEEIQEAKFVDLNEENIDEYITRPHMKSRTLDAMRATHFIPYETWEVQPYNLIGRL | not soluble |
| MEHNILQVIALAEKLKYEMRHSWLSNGRQESVAEHTWRMSLMAILVEPYLDQKVSIEKLLKMVIIHDLVEAEAGDIPAFDTMNSHDLQLQKQKNELEAILNIKQTLTGSLGEELYDLWMEFEAKETYEAKVANALDKLEVKIQHNEADIDTWLPIEHKMTFQVAKHTNFDSFLSKLQKIIEQDGEKKLIAAGIDVEACKQ | soluble |
| MEIKLQGKVSLVTGSTRGIGRAIAEKLASAGSTVIITGTSGERAKAVAEEIANKYGVKAHGVEMNLLSEESINKAFEEIYNLVDGIDILVNNAGITRDKLFLRMSLLDWEEVLKVNLTGTFLVTQNSLRKMIKQRWGRIVNISSVVGFTGNVGQVNYSTTKAGLIGFTKSLAKELAPRNVLVNAVAPGFIETDMTAVLSEEIKQKYKEQIPLGRFGSPEEVANVVLFLCSELASYITGEVIHVNGGMF | soluble |
| MEINADFTKPVVIDTDQLEWRPSPMKGVERRMLDRIGGEVARATSIVRYAPGSRFSAHTHDGGEEFIVLDGVFQDEHGDYPAGTYVRNPPTTSHVPGSAEGCTIFVKLWQFDPADRTQFSKNMEAELGAPVEGISTSLLHEDERETVTHRKLEPGANLTSEAAGGIEVLVLDGDVTVNDEVLGRNAWLRLPEGEALSATAGARGAKIWMKTGHLRFVRTPEV | soluble |
| MEIQIVTGFLGAGKTTFLNRYLPLLSGKTVVIENEFGDIGIDGDRIQEDIPVREIFAGCICCSLAMDFRKGIKEIAENFHPDRILIEPSGVGRLTDIVKACQMAREREKVSLQITKLIAIVDMASFEEYIEGFGAFYQDQIERAGLLLLSHVEAENKAQKEIIIGRLKELNPDAILYDGDWRQLENEELLKLLEEAPDYDEDARRDAAFAALPADKVFSSVSFMDLPQMRIEDLEAIMKALEKEEYGYILRAKGWIETMEKGLVHFDFTPTVSKYREEKNPAGTGGEAVVIGCGLNQAALEMLFRRKNILEHHHHHH | soluble |
| MEISTLPIYHTKTKMFGYYAYKSFSFLPEWKIDVTRDFDVTIGPKFSANLVFGVNNRNRSDYTQFVIDKDEIIVSASVGEEVDFNYRLRDNLKAYIGLEAQVGIGERIYTKSGLYDTGKKIEGSSENAFKPYTPYIIFNNTHIMYSGKVSAGLKIRDKYNIALYGGYGKGYFGIEFGQTF | not soluble |
| MEKEIKEKNLPLELTLVEASPRVGGKIQTVKKDGYIIERGPDSFLERKKSAPQLVKDLGLEHLLVNNATGQSYVLVNRTLHPMPKGAVMGIPTKIAPFVSTGLFSLSGKARAAMDFILPASKTKDDQSLGEFFRRRVGDEVVENLIEPLLSGIYAGDIDKLSLMSTFPQFYQTEQKHRSLILGMKKTRPQGSGQQLTAKKQGQFQTLSTGLQTLVEEIEKQLKLTKVYKGTKVTKLSHSGSCYSLELDNGVTLDADSVIVTAPHKAAAGMLSELPAISHLKNMHSTSVANVALGFPEGSVQMEHEGTGFVISRNSDFAITACTWTNKKWPHAAPEGKTLLRAYVGKAGDESIVDLSDNDIINIVLEDLKKVMNINGEPEMTCVTRWHESMPQYHVGHKQRIKELREALASAYPGVYMTGASFEGVGIPDCIDQGKAAVSDALTYLFS | not soluble |
| MEKKTNCIQNEEQKKEKELIAEKAAKAGFVNRLYVNIGQKVGVVELTKLEPRFERNIDKLTSYHNLIYKIVNVIELQVQFMPKAMAKKAVLCAPGENPWEVLGGWLNYLGKNQFDGQHSKMLEKYSSACGRIAQKEIQVQKRTRSHLIKKMRLYTGEESEILNSNVENLNNLLHAIDDSRHHVKSSKTTKEVKAKGETYRKAINAFNETANEVQALIDEVAMVVPLHENEFLKFSREASVYHDTVHNSLSEVIFRLGYHVKKH | not soluble |
| MEKNWYVVHTYSGYENKVKANLEKRVESMGMQDKIFRVVVPEEEETDIKNGKKKVVKKKVFPGYVLVEIVMTDDSWYVVRNTPGVTGFVGSAGSGSKPTPLLPGEAETILKRMGMDERKTDIDFELKETVKVIDGPFANFTGSIEEIDYDKSKVKVFVNMFGRETPVELEFTQIDKLLEHHHHHH | not soluble |
| MEKQWWKESVVYQIYPRSFMDSNGDGIGDLRGIISKLDYLKELGIDVIWLSPVYESPNDDNGYDISDYCKIMNEFGTMEDWDELLHEMHERNMKLMMDLVVNHTSDEHNWFIESRKSKDNKYRDYYIWRPGKEGKEPNNWGAAFSGSAWQYDEMTDEYYLHLFSKKQPDLNWDNEKVRQDVYEMMKFWLEKGIDGFRMDVINFISKEEGLPTVETEEEGYVSGHKHFMNGPNIHKYLHEMNEEVLSHYDIMTVGEMPGVTTEEAKLYTGEERKELQMVFQFEHMDLDSGEGGKWDVKPCSLLTLKENLTKWQKALEHTGWNSLYWNNHDQPRVVSRFGNDGMYRIESAKMLATVLHMMKGTPYIYQGEEIGMTNVRFESIDEYRDIETLNMYKEKVMERGEDIEKVMQSIYIKGRDNARTPMQWDDQNHAGFTTGEPWITVNPNYKEINVKQAIQNKDSIFYYYKKLIELRKNNEIVVYGSYDLILENNPSIFAYVRTYGVEKLLVIANFTAEECIFELPEDISYSEVELLIHNYDVENGPIENITLRPYEAMVFKLK | soluble |
| MEKVLDLDVQVKANNNSNDSAGDERITSHSLCTPGCAKTGSFNSFCC | not soluble |
| MELFKDIKNLGKLVRLERIFNRESEKTVIVPMDHGVSNGPIKGLIDIRKTVNDVAEGGANAVLLHKGIVRHGHRGYGKDVGLIIHLSGGTAISPNPLKKVIVTTVEEAIRMGADAVSIHVNVGSDEDWEAYRDLGMIAETCEYWGMPLIAMMYPRGKHIQNERDPELVAHAARLGAELGADIVKTSYTGDIDSFRDVVKGCPAPVVVAGGPKTNTDEEFLQMIKDAMEAGAAGVAVGRNIFQHDDVVGITRAVCKIVHENADVEEALKEIRKK | soluble |
| MELFLAGRRVLVTGAGKGIGRGTVQALHATGARVVAVSRTQADLDSLVRECPGIEPVCVDLGDWEATERALGSVGPVDLLVNNAAVALLQPFLEVTKEAFDRSFEVNLRAVIQVSQIVARGLIARGVPGAIVNVSSQCSQRAVTNHSVYCSTKGALDMLTKVMALELGPHKIRVNAVNPTVVMTSMGQATWSDPHKAKTMLNRIPLGKFAEVEHVVNAILFLLSDRSGMTTGSTLPVEGGFWAC | soluble |
| MELIDKFITLHDQLRKDLNLASLCISKAKTTHGIGLFSVNSVDTHDLEPSIRLDTKNGKFVLLKNSENEEEKNDKKNKKKKDENKSEKKNSGESEDVEEAKKTFSGQFRPFGVLEPAAAKDARKIYRNSIQTILDLVSTQQSILAKSRQLVEDC | not soluble |
